Values belong to the molecule of their own block, whether it stands above or below them.
Key:
Ligelizumab = test: SPR; IgG Fc antibodies covalently coupled to the sensor chip captured the anti-IgE mAbs (ligelizumab: Creative Biolabs, TAB755); Expi293-expressed human full-length IgE injected at 0.312–50 nM
Omalizumab = test: as above
[1] = target: CD23 on SKW6.4 B lymphoma cells (human (endogenous in SKW6.4)) (UniProt P06734); test: flow cytometry on cells; Alexa Fluor 647-conjugated UB-221, ligelizumab (UBP lot) or omalizumab at 0 to 10 μg/mL mixed with an equal volume of 15 μg/mL human IgE in PBS, 1 hour at room temperature; added to CD23^+ SKW6.4 cells for 30 minutes at 4°C
[2] = target: IgE in sera of patients with atopic dermatitis (human (endogenous in patients' sera)); test: ELISA; sera of AD patients with high basal IgE (>24,000 ng/mL, n = 10) incubated 1 hour at room temperature with mAb at 0–75,000 ng/mL; remaining free IgE measured on plates coated with FcεRIα-Fcγ
[3] = target: IgE in sera of patients with atopic dermatitis (human (endogenous in patients' sera)); test: ELISA; sera of AD patients with low basal IgE (<4,800 ng/mL, n = 9) incubated 1 hour at room temperature with mAb at 0–4,000 ng/mL (ligelizumab: Creative Biolabs TAB-755); remaining free IgE measured on plates coated with FcεRIα-Fcγ
[4] = target: CD23-bound IgE on SKW6.4 cells (human | human (endogenous in SKW6.4)) (UniProt P01854); test: flow cytometry on cells; CD23^+ SKW6.4 cells with 15 μg/mL human IgE for 30 minutes at 4°C, washed, then UB-221, ligelizumab (UBP lot) or omalizumab at 0–10 μg/mL in PBS for 30 minutes at 4°C; Brilliant Violet 421 anti-human IgG Fc

UniProt P06734, sequence (P06734 whole entry): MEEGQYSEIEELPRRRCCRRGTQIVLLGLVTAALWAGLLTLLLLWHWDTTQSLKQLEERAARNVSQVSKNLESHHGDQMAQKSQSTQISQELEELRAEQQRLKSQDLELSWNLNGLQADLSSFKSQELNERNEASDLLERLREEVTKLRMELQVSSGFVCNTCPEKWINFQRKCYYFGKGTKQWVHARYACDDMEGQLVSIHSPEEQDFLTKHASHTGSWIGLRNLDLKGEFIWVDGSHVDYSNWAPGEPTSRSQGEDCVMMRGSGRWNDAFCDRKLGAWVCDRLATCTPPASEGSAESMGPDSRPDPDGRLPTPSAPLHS
IgE in sera of patients with atopic dermatitis (human (endogenous in patients' sera)), sequence (P01854 whole entry): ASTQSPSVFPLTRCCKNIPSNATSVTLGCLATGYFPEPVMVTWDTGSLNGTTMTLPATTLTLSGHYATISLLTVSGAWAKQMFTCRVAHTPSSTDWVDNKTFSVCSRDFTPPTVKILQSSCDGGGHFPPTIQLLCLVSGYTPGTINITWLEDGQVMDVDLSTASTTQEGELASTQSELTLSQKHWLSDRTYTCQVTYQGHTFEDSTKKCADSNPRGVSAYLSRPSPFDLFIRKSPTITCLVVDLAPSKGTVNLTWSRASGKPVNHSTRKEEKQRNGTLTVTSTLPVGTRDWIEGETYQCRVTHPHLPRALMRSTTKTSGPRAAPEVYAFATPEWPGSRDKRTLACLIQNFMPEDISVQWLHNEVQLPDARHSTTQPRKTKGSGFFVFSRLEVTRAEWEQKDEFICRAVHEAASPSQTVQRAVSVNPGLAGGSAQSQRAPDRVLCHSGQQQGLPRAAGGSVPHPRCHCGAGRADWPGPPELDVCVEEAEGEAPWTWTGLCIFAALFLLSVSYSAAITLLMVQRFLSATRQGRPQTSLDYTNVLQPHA

Kd (Ligelizumab): 0.016 nM | Kd (Omalizumab): 0.23 nM
Molecule: Expi293-expressed human full-length IgE (from UniProt P01854 1-546) (natural protein)

maximum binding MFI [1]: 191 MFI
Molecule: Preformed ligelizumab-IgE complex (from UniProt P01854 1-546)

maximum binding MFI [1]: 1280 MFI
Molecule: Preformed UB-221–IgE complex (from UniProt P01854 1-546)

EC90 [2]: > 25 µg/mL | EC90 [3]: 1 µg/mL | maximum binding MFI [4]: 503 MFI
B1: Ligelizumab (antibody, V domains shown)
VH: QVQLVQSGAEVMKPGSSVKVSCKASGYTFSWYWLEWVRQAPGHGLEWMGEIDPGTFTTNYNEKFKARVTFTADTSTSTAYMELSSLRSEDTAVYYCARFSHFSGSNYDYFDYWGQGTLVTVSS
VL: EIVMTQSPATLSVSPGERATLSCRASQSIGTNIHWYQQKPGQAPRLLIYYASESISGIPARFSGSGSGTEFTLTISSLQSEDFAVYYCQQSWSWPTTFGGGTKVEIK
